Experimental data from US20070178095A1 (Eli Lilly, published 2007).

Columns and labels:
[1] = target: T1, peptide immunogen ANYCSGESEFVFLQKYPHTHLVHQA (human); assay: ELISA, peptide coated at 2 ug/ml, Fab 0.016-10 ug/ml
T1 construct: For immunization it was conjugated to KLH and a helper T-cell peptide; also called immunogenic peptide; immunogenic polypeptide
T1 peptide: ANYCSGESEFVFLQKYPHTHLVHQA
Method: Each well of two 96-well plates is coated with 70 μl of the peptide immunogen used to generate the Fabs (2 μg/ml in carbonate buffer, pH 9.6). The plates are incubated in a dry oven at 37° C. overnight with the lids removed. The wells are aspirated and washed twice with washing buffer (20 mM Tris (hydroxymethyl) aminomethane, pH 7.4, 0.15 M NaCl, 0.1% Tween-20). The plates are blocked with 200 μl blocking buffer per well (5% BioRad blotting grade milk in the above washing buffer) for 2.5 hours.
The Fabs are diluted into blocking buffer at 10 μg/ml, 2 μg/ml, 0.4 μg/ml, 0.08 μg/ml, and 0.016 μg/ml. A rat anti-myostatin monoclonal antibody (R&D Systems, catalog #MAB788, clone #84214) and a polyclonal anti-myostatin antibody (R&D Systems, catalog #AF788), are used as controls at the above concentrations and are also diluted in blocking buffer. Fifty microliters of each antibody solution is added to the peptide-coated wells in duplicate. The plates are incubated for 1.5 hours at room temperature. The wells are then washed 3 times with washing buffer.
Peroxidase-conjugated secondary antibody (50 μl goat anti-mouse kappa HRP (Southern Biotech) for Fabs, 50 μl mouse anti-rat (Jackson ImmunoResearch) for monoclonal, 50 μl rabbit anti-goat (Jackson ImmunoResearch) for polyclonal, all diluted 1:2000 in blocking buffer is added to each well and incubated for 1 hour at room temperature. The wells are then washed 3 times with washing buffer. Fifty microliters of chromogenic substrate (i.e., OPD substrate) is added to each well and allowed to develop at room temperature for 10 minutes. The reaction is stopped by adding 100 μl 1N HCl to each well. The absorbance of the wells is read at 490 nm.

[2] = target: T2, recombinant mouse myostatin (R&D systems, Cat. #788-G8/CF, carrier-free) (mouse, UniProt O08689 268-376); assay: ELISA, growth factor coated at 10 ug/ml, Fab at 10 ug/ml, mean of duplicate wells
T2 construct: mature; also called GDF-8; GDF-8/myostatin
T2 sequence (looked up): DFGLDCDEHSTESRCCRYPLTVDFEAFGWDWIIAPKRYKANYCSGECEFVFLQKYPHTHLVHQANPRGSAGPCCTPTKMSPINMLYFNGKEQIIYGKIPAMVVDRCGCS
Method: (§1) Peroxidase-conjugated secondary antibody (50 μl goat anti-mouse kappa HRP (Southern Biotech) for the Fabs, 50 μl rabbit anti-goat (Jackson ImmunoResearch) for the polyclonal, diluted 1:2000 in blocking buffer) is added to each well and incubated for 1 hour at room temperature. The wells are then washed 3 times with washing buffer. Fifty microliters of chromogenic substrate (i.e., OPD substrate) is added to each well and allowed to develop at room temperature for 10 minutes. The reaction is stopped by adding 100 μl 1N HCl to each well. The absorbance of the wells is read at 490 nm.

[3] = target: T3, recombinant human GDF-11 (Peprotech, Inc., Cat. # 120-11, carrier-free) (human, UniProt O95390 299-407); assay: as above
T3 construct: also called BMP-11
T3 sequence (looked up): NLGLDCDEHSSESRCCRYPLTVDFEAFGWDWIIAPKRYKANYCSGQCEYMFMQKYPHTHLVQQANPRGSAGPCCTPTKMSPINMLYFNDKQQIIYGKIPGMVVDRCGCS
Method: as §1

[4] = target: T4, IGF-1 (R&D Systems 291-G1) (UniProt P05019 49-118); assay: as above
T4 construct: Negative control antigen
Method: as §1

[5] = target: BMP-2 (R&D Systems 355-BEC/CF) (UniProt P12643 283-396); assay: as above
Method: as §1

[6] = target: T5, BMP-5 (R&D Systems 615-BM) (UniProt P22003 317-454, limits assumed); assay: as above
T5 sequence (looked up): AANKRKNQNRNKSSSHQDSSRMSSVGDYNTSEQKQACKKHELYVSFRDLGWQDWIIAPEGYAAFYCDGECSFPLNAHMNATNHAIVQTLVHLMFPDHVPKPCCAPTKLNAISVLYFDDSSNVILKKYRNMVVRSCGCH
Method: as §1

[7] = target: T6, BMP-6 (R&D Systems 507-BP) (UniProt P22004 382-513, limits assumed); assay: as above
T6 sequence (looked up): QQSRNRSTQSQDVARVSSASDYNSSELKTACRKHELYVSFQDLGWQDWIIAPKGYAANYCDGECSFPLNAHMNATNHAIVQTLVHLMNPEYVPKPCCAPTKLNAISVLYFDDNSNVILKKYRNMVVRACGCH
Method: as §1

[8] = target: T7, BMP-7 (R&D Systems 354-BP) (UniProt P18075 293-431); assay: as above
T7 sequence (looked up): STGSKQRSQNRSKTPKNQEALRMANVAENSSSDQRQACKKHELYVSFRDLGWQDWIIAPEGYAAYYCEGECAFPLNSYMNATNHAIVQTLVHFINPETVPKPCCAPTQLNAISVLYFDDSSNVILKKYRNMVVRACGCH
Method: as §1

[9] = target: T8, Activin A (R&D Systems 338-AC) (UniProt P08476 311-426); assay: as above
T8 sequence (looked up): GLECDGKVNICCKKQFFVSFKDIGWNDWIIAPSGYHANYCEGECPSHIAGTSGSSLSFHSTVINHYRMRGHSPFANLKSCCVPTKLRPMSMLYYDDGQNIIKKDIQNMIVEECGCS
Method: as §1

[10] = target: T9, Activin B (R&D Systems 659-AB) (UniProt P09529 293-407); assay: as above
T9 sequence (looked up): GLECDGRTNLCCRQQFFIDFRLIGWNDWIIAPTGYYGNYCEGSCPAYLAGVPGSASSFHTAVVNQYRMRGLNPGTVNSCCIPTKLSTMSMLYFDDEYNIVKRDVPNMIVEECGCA
Method: as §1

[11] = target: TGF-alpha (R&D Systems 239-A) (UniProt P01135 40-89); assay: as above
Method: as §1

[12] = target: T10, TGF-beta1 (Peprotech, Inc. 100-21R) (UniProt P01137 279-390); assay: as above
T10 construct: also called TGF-b1
Method: as §1

[13] = target: T11, TGF-beta2 (Peprotech, Inc. 100-35) (UniProt P61812 303-414); assay: as above
T11 construct: also called TGF-b2
T11 sequence (looked up): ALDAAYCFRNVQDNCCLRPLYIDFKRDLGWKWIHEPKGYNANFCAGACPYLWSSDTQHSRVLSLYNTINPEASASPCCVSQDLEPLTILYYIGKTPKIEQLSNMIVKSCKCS
Method: as §1

T10 sequence (P01137 279-390 limits assumed): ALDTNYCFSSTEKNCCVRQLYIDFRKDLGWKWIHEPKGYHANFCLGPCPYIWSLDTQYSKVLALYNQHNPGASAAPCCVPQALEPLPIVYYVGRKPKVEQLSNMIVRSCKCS
T4 sequence (P05019 49-118 limits assumed): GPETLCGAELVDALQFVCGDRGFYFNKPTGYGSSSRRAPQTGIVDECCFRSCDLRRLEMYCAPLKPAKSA
BMP-2 (R&D Systems 355-BEC/CF), sequence (P12643 283-396 limits assumed): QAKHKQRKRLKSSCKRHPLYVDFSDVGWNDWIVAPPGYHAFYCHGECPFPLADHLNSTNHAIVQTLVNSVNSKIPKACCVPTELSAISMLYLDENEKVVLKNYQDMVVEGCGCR
TGF-alpha (R&D Systems 239-A), sequence (P01135 40-89 limits assumed): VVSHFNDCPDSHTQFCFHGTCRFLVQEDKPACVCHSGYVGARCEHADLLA

binding result [1]: binds
absorbance at 490 nm [2]: 0.202 OD 490 nm
absorbance at 490 nm [3]: 0.034 OD 490 nm
absorbance at 490 nm [4]: 0.035 OD 490 nm
absorbance at 490 nm [5]: 0.032 OD 490 nm
absorbance at 490 nm [6]: 0.033 OD 490 nm
absorbance at 490 nm [7]: 0.0325 OD 490 nm
absorbance at 490 nm [8]: 0.032 OD 490 nm
absorbance at 490 nm [9]: 0.033 OD 490 nm
absorbance at 490 nm [10]: 0.033 OD 490 nm
absorbance at 490 nm [11]: 0.033 OD 490 nm
absorbance at 490 nm [12]: 0.0325 OD 490 nm
absorbance at 490 nm [13]: 0.034 OD 490 nm
B1: Fab 5 (Fab, V domains shown)
VH: QVTLKESGPGILQSSQTLSLTCSFSGFSLSTSGMSVSWIRQSSGKGLEWLAHIYWDDDKRYNPSLRSRLTISKDTSRNQVFLKITSVDTADTATYYCARRGITTVLGGGTMDYWGQGTSVTVSS
VL: QVVLTQSPAIMSASLGEKVTMTCSASSSVHYMHWYQQKSGTSPKRWIYDTSKLASGVPARFSGSGSGTSYSLTISSMEAEDAATYYCQQWSSNPLTFGAGTKLELKR
notes: Mouse Fab, kappa light chain; also called anti-myostatin Fab 5
